{
  "source": "paper PMC3288308",
  "key": {"[1]": {"molecular_target": "Treponema pallidum adhesin protein fragment rTp0483 (recombinant C-terminal portion of Tp0483) (Treponema pallidum)", "sequence (O83496 22-374)": "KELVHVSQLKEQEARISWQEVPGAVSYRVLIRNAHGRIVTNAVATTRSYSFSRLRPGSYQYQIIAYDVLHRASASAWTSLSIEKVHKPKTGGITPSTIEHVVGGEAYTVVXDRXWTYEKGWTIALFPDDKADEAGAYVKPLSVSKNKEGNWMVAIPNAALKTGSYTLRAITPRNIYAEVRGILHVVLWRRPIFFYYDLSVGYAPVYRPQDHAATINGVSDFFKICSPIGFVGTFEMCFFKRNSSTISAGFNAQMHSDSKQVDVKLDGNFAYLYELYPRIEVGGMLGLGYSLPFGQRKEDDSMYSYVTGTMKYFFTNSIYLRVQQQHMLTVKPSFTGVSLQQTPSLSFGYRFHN", "assay": "SPR"}, "[2]": {"molecular_target": "Treponema pallidum adhesin protein fragment rTp0483 (recombinant C-terminal portion of Tp0483) (Treponema pallidum)", "assay": "quartz crystal microbalance"}, "[3]": {"molecular_target": "Treponema pallidum adhesin protein fragment rTp0483 (recombinant C-terminal portion of Tp0483) (Treponema pallidum)", "assay": "quartz crystal microbalance", "remark": "listed apart in the source"}, "[4]": {"molecular_target": "Treponema pallidum adhesin protein fragment rTp0483 (recombinant C-terminal portion of Tp0483) (Treponema pallidum)", "assay": "SPR", "remark": "listed apart in the source"}, "[5]": {"molecular_target": "Treponema pallidum adhesin protein fragment rTp0483 (recombinant C-terminal portion of Tp0483) (Treponema pallidum)", "assay": "SPR", "remark": "listed apart in the source"}, "[6]": {"molecular_target": "Treponema pallidum adhesin protein fragment rTp0483 (recombinant C-terminal portion of Tp0483) (Treponema pallidum)", "assay": "quartz crystal microbalance", "remark": "listed apart in the source"}, "[7]": {"molecular_target": "Treponema pallidum adhesin protein fragment rTp0483 (recombinant C-terminal portion of Tp0483) (Treponema pallidum)", "assay": "SPR", "remark": "listed apart in the source"}, "[8]": {"molecular_target": "Treponema pallidum adhesin protein fragment rTp0483 (recombinant C-terminal portion of Tp0483) (Treponema pallidum)", "assay": "quartz crystal microbalance", "remark": "listed apart in the source"}, "[9]": {"molecular_target": "Human plasma fibronectin (human)", "assay": "SPR"}},
  "note": "Like-named read-outs stand apart in the source and are kept apart here.",
  "data": [
    {"substance": "Human plasma fibronectin (natural protein)", "values": [
      {"measurement": "KA1 (bivalent analyte model, reaction 1)", "setting": "[1]", "value": "1.03e+09", "unit": "M⁻¹"},
      {"measurement": "KA2 (bivalent analyte model, reaction 2)", "setting": "[1]", "value": "403 1/RU"},
      {"measurement": "surface mass density of FN bound (SPR) in the presence of anti-Tp0483#1", "setting": "[1]", "value": 373, "unit": "pg/mm^2"},
      {"measurement": "surface mass density of FN bound (SPR) in the presence of anti-Tp0483#2", "setting": "[1]", "value": 270, "unit": "pg/mm^2"},
      {"measurement": "surface mass density of FN bound (SPR), FN alone", "setting": "[1]", "value": 282, "unit": "pg/mm^2"},
      {"measurement": "surface mass density of FN bound (SPR), FN preincubated with 20 µg/mL anti-RGD", "setting": "[1]", "value": 91, "unit": "pg/mm^2"},
      {"measurement": "surface mass density of FN bound (SPR), FN preincubated with 50 µg/mL anti-RGD", "setting": "[1]", "value": 47, "unit": "pg/mm^2"},
      {"measurement": "surface mass density of FN bound (SPR), no antibody", "setting": "[1]", "value": 846, "unit": "pg/mm^2"},
      {"measurement": "surface mass density of FN bound (QCM)", "setting": "[2]", "value": 1380, "unit": "pg/mm^2"},
      {"measurement": "surface mass density of FN bound (QCM)", "setting": "[3]", "value": 3.5, "unit": "pg/mm^2"},
      {"measurement": "KA2 (bivalent analyte model, reaction 2)", "setting": "[4]", "value": "0.0225 1/RU"},
      {"measurement": "KD1 (inverse of KA1, reaction 1 of the bivalent analyte model)", "setting": "[4]", "value": 0.65, "unit": "nM"},
      {"measurement": "KA2 (bivalent analyte model, reaction 2)", "setting": "[5]", "value": "0.0403 1/RU"},
      {"measurement": "KD1 (inverse of KA1, reaction 1 of the bivalent analyte model)", "setting": "[5]", "value": 0.97, "unit": "nM"},
      {"measurement": "surface mass density of FN bound (QCM)", "setting": "[6]", "value": 60, "unit": "pg/mm^2"},
      {"measurement": "KA1 (bivalent analyte model, reaction 1)", "setting": "[7]", "value": "1.53e+09", "unit": "M⁻¹"},
      {"measurement": "KA2 (bivalent analyte model, reaction 2)", "setting": "[7]", "value": "225 1/RU"},
      {"measurement": "surface mass density of FN bound (QCM)", "setting": "[8]", "value": 363, "unit": "pg/mm^2"}
    ]},
    {"substance": "Peptide D2, residues 316-333 of the complete Tp0483 sequence", "values": [
      {"measurement": "% FN binding to rTp0483 with the peptide, of FN alone", "setting": "[9]", "value": 88, "unit": "%"}
    ]},
    {"substance": "Type A gelatin", "values": [
      {"measurement": "surface mass density of gelatin bound (SPR) on FN adsorbed on the SAM", "setting": "[9]", "value": 940, "unit": "pg/mm^2"},
      {"measurement": "surface mass density of gelatin bound (SPR) on rTp0483+FN", "setting": "[9]", "value": 211, "unit": "pg/mm^2"}
    ]}
  ]
}
